Legend:
L-selectin [1] = target: T1, L-selectin (Rattus norvegicus, UniProt P30836); assay: Stamper-Woodruff assay, lymphocyte adherence to immunoprecipitated CD44 and PSGL-1; format: cell-based; conditions: 0.75 μg/spot (PSGL-1 1 μg/spot); 80 rpm, 4° C.; 100× mag.
T1 construct: L-selectin naturally expressed on leukocytes; endogenous in cells; host or cells: lymphocytes (rat thoracic duct lymphocytes; human PBMC also prepared)
T1 sequence (P30836 39-372): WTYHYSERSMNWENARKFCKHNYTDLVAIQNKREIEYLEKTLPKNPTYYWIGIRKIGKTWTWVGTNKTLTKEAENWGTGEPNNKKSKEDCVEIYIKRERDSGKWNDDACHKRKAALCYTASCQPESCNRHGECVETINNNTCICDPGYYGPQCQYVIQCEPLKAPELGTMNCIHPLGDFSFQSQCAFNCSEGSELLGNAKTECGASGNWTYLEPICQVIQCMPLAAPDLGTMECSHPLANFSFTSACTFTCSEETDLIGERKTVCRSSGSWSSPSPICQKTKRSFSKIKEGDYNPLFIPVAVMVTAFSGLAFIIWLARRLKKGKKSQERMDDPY
Procedure: These protein spots were then fixed in 3% glutaraldehyde, unreactive aldehyde groups were blocked in 0.2M lysine and slides were kept in RPMI-1640 without NaBicarbonate/2% FBS until ready for testing. Lymphocytes (10^7/ml RPMI-1640 without NaBicarbonate/5% FBS) were overlayed onto these fixed immunoprecipitates and incubated on an orbital shaker at 80 rpm for 30 min. at 4° C. The number of adherent lymphocytes was quantified by light microscopy using an ocular grid under 100× magnification (a minimum of 5 fields/slide, 2 slides/experiment, and 3 separate experiments). Data were presented as the mean number of bound lymphocytes±standard deviation. KG1a CD34 and L-selectin control immunoprecipitates were also tested in this manner. To verify the dependence for sialic acid, glutaraldehyde-fixed spots were treated with Vibrio cholerae neuraminidase (0.1 U/ml RPMI-1640 without NaBicarbonate/2% FBS for lhr at 37° C.).
Immunoaffinity purified material (0.75-3 μg/spot) was spotted onto glass slides for analyses in the Stamper-Woodruff assay (See below for assay description). For autoradiographic analysis of immunoprecipitated [^35S]-methionine-radiolabeled CD44 and PSGL-1, immunoprecipitates were spotted onto glass slides, allowed to dry and exposed Kodak BioMax-MR film for 12 h at −80° C. Densitometric analysis (optical density) of the autoradiograms was performed with a Hewlett-Packard Scanj et 5200C scanner and NIH Image processing and analysis program.

E-selectin [2] = target: T2, E-selectin (Homo sapiens, UniProt P16581); assay: CHO-E cell rolling on immobilized immunoprecipitates, parallel-plate flow chamber; format: cell-based; conditions: for E-selectin ligand activity (CHO-E cell rolling): immunoprecipitates on plastic, 2.8 dynes/cm^2
T2 construct: stably transfected with full-length cDNA encoding human E-selectin; expressed in transfected cells
T2 sequence (P16581 22-610): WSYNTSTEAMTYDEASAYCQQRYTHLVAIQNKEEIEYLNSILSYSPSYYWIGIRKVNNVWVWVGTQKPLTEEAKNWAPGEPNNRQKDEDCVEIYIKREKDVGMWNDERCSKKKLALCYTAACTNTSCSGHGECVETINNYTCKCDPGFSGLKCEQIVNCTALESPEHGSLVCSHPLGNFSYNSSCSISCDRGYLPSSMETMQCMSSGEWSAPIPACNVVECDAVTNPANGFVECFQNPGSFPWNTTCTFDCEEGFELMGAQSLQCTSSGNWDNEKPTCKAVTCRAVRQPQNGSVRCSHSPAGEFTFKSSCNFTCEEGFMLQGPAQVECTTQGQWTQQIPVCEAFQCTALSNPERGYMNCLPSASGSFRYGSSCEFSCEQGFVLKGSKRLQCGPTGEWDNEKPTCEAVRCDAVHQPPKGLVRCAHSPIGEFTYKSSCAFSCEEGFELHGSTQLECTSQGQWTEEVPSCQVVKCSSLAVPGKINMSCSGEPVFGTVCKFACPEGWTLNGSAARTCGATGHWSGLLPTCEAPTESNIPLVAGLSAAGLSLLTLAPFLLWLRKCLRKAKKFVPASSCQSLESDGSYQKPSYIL
Procedure: CD44 was immunoprecipitated from untreated cell lysates or from cell lysates treated with N-glycosidase-F (0.8 U/ml) Vibrio cholerae neuraminidase (0.1 U/ml) or a-L-fucosidase (80 mU/ml), and PSGL-1 was immunoprecipitated from untreated cell lysates as previously described (Sackstein and Dimitroff, 2000; Dimitroff et al., 2000).
CD44 or PSGL-1 immunoprecipitates were spotted onto plastic petri dishes, fixed in 3% glutaraldehyde and incubated in 0.2M lysine to block unreactive aldehyde groups, and then non-specific binding was prevented by incubating in 100% FBS for 1 hr at RT. Fixed spots were also treated with Vibrio cholerae neuraminidase (0.1 U/ml assay medium), which was overlaid onto the spots and incubated at 37° C. for 1 hr. […] The flow rate was then increased to achieve a shear stress of 2.8 dynes/cm^2. The frequency of cells rolling per 100× magnification field was determined, and data were expressed as the mean±standard deviation of 8 fields visualized from a minimum of 3 experiments.

E-selectin [3] = target: T2, E-selectin; assay: Blot rolling assay with CHO-E cells; format: cell-based; conditions: immunoprecipitated CD44 on Western blot; 3.8 dynes/cm^2
Procedure: The blot rolling assay was performed as previously described (Dimitroff et al., 2000). Briefly, CHO-E, CHO—P or CHO-Mock transfectants were isolated as described above, washed twice in HBSS and suspended at 10^7/ml in HBSS/10 mM HEPES/2mMCaCl2 (H/H/Ca++)/10% glycerol. Western blots of HPC membrane preparations stained with HECA-452 were rendered transparent by incubating them in H/H/Ca++/10% glycerol. The blots were then placed in the parallel-plate flow chamber, and CHO transfectants (2×10^6/ml) were perfused into the chamber. After allowing the cells to come in contact with the blotting membrane, the flow rate was adjusted to exert a shear stress of 3.8 dynes/cm^2. The viscosity of 10% glycerol adhesion assay medium was considered in the calculation of shear stress values. The number of cells rolling on and between each immunostained banding region was quantified under 100× magnification within each field of view on the video monitor using molecular weight markers (Kaleidoscope Molecular Weight Markers, Bio-Rad Lab.; See Blue® from Novex, Inc.) as guides to help align and visualize the apparent molecular weights of the proteins of interest. A minimum of 3 experiments was performed and results were expressed as the mean±SD of cell rolling/field at 100× magnification.

L-selectin [4] = assay: Blot rolling assay with L-selectin-expressing lymphocytes; format: cell-based; conditions: 2.3 dynes/cm^2
Procedure: L-selectin-expressing lymphocytes were isolated as previously described (Oxley, S. M. & Sackstein, R. (1994). Blood. 84:3299-3306; Sackstein, R., Fu, L. and Allen, K. L. (1997) Blood. 89:2773-2781), washed twice in HBSS and suspended at 2×10^7/ml in HBSS/10 mM HEPES/2mMCaCl2 (H/H/Ca^++)/10% glycerol. Cell lysate material is separated by SDS-PAGE and transferred to PVDF under standard blotting conditions. Western blots of KG1a membrane preparations stained with HECA-452, A3D8 or Hermes-1 were rendered transparent by incubating them in H/H/Ca^++/10% glycerol. To study L-selectin-mediated adhesive interactions, the blots were placed in the parallel plate flow chamber and lymphocytes were perfused into the chamber at a shear force of 2.3 dynes/cm^2 and cellular adhesive interactions are observed by video microscopy and analyzed in real time.
The number of lymphocytes rolling on and between each immunostained banding region was quantified from five independent fields under 200× magnification on the video monitor using molecular weight markers as guides to help align and visualize the proteins of interest. A minimum of 3 experiments were performed, and results were expressed as the mean of cell rolling/field.

CD44 = assay: [35S]-SO4 metabolic labeling of CD44 in KG1a cells; format: cell-based, human; conditions: 10 mM sodium chlorate for 24 hr after bromelain
Text: To determine if CD44 on KG1a cells is sulfated, KG1a cell cultures were metabolically labeled with [^35S]-SO4. CD44 immunoprecipitated from these cells was indeed sulfated (FIG. 11 A). To test whether sulfation was critical for L-selectin ligand activity of CD44, KG1a cells were pretreated with 0.1% bromelain, a protease that eliminates all KG1a HCLL activity (Sackstein, R. & Dimitroff, C. J. (2000). Blood. 96, 2765-2774) and also removes CD44 from the cell surface (Hale, L. P. & Haynes, B. F. (1992). J. Immunol 149:3809-3816). Following bromelain digestion of KG1a, re-expression of HCELL requires de novo protein synthesis, and protein synthesized in the presence of chlorate (a metabolic inhibitor of both protein and carbohydrate sulfation) is non-sulfated (Sackstein, R., Fu, L. and Allen, K. L. (1997). Blood. 89:2773-2781). Therefore, KG1a was treated with bromelain and confirmed removal of CD44 by flow cytometry. The KG1a cells were cultured in the absence or presence of 10 mM sodium chlorate for 24 hr and metabolically radiolabeled the cells for the last 8 hr of incubation with [^35S]-SO4 in sulfate-deficient CRCM-30 medium. […] This effect of chlorate was specific for sulfate incorporation and not a general inhibition of CD44 protein synthesis, as [^35S]-methionine/cysteine metabolic radioloabeling of CD44 was identical in chlorate- and non-chlorate-treated cell populations.

P-selectin = target: T3, P-selectin (Homo sapiens, UniProt P16109); assay: CHO-P cell rolling on immobilized immunoprecipitates, parallel-plate flow chamber; format: cell-based; conditions: 2.8 dynes/cm^2
T3 construct: CHO-P (CHO stably transfected with human cDNA encoding full length P-selectin); expressed in transfected cells
T3 sequence (P16109 42-830): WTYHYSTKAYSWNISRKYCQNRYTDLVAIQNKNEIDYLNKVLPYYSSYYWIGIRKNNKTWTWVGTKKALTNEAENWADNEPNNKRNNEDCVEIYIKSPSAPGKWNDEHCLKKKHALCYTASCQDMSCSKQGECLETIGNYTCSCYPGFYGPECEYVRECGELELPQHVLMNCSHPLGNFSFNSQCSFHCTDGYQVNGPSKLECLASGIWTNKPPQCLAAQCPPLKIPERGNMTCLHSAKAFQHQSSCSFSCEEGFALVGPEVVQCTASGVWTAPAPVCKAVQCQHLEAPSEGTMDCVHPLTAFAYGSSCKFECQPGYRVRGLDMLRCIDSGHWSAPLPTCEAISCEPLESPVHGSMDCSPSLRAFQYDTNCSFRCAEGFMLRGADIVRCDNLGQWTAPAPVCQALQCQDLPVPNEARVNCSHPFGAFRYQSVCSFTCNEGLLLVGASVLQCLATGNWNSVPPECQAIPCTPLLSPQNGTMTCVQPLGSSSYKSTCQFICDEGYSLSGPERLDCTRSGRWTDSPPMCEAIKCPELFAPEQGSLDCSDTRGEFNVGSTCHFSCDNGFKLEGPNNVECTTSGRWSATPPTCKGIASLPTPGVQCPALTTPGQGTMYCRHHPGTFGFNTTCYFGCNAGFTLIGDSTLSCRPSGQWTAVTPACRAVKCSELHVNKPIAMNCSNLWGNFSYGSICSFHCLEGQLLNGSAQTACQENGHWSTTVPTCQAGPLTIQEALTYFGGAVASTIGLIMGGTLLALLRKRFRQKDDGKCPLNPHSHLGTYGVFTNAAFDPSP
Procedure: CD44 or PSGL-1 immunoprecipitates were spotted onto plastic petri dishes, fixed in 3% glutaraldehyde and incubated in 0.2M lysine to block unreactive aldehyde groups, and then non-specific binding was prevented by incubating in 100% FBS for 1 hr at RT. Fixed spots were also treated with Vibrio cholerae neuraminidase (0.1 U/ml assay medium), which was overlaid onto the spots and incubated at 37° C. for 1 hr. The protein dishes were placed in the parallel-plate flow chamber and CHO-E, CHO-P (CHO stably transfected with human cDNA encoding full length P-selectin), CHO-P cells treated with function blocking anti-P-selectin moAb (clone AK-4; Pharmingen) (10 μg/ml), CHO-E cells treated with function blocking anti-E-selectin Abs (10 μg/ml) (clone 68-5H1 1) or Mock transfectants were perfused into the chamber (2×10^6/ml H/H/Ca++) at a flow rate of 0.2 ml/min until the cells were in contact with the substrate. The flow rate was then increased to achieve a shear stress of 2.8 dynes/cm^2. The frequency of cells rolling per 100× magnification field was determined, and data were expressed as the mean±standard deviation of 8 fields visualized from a minimum of 3 experiments.

Row | Molecule | Mean Number of Bound Lymphocytes (L-selectin [1]) | E-selectin ligand activity (CHO-E cell rolling) (E-selectin [2]) | E-selectin ligand activity (CHO-E cell rolling) in blot rolling assay (E-selectin [3]) | L-selectin ligand activity (lymphocyte tethering and rolling) in blot rolling assay (L-selectin [4]) | incorporation of [35S]-SO4 into immunoprecipitable CD44 (Hermes-1) (CD44) | CHO-E cell rolling (E-selectin [2]; lower shear stress of 0.6 dynes/cm^2) | P-selectin ligand activity (CHO-P cell rolling) (P-selectin)
1 | KG1a N-glycosidase-F CD44: CD44 immunoprecipitated from N-glycosidase-F-treated KG1a membrane protein | 30.7 | abrogated CHO-E cell rolling | completely abrogated CHO-E cell rolling | abolished all L-selectin-mediated lymphocyte tethering and rolling | – | – | –
2 | [O-][Cl+2]([O-])O [chlorate, sodium chlorate] | – | – | – | – | completely inhibited | – | –
3 | KG1a PSGL-1: PSGL-1 immunoaffinity purified (PL-2) from KG1a cells (protein) QATEYEYLDYDFLPETEPPEMLRNSTDTTPLTGPGTPESTTVEPAARRSTGLDAGGAVTELTTELANMGNLSTDSAAMEIQTTQPAATEAQTTQPVPTEAQTTPLAATEAQTTRLTATEAQTTPLAATEAQTTPPAATEAQTTQPTGLEAQTTAPAAMEAQTTAPAAMEAQTTPPAAMEAQTTQTTAMEAQTTAPEATEAQTTQPTATEAQTTPLAAMEALSTEPSATEALSMEPTTKRGLFIPFSVSSVTHKGIPMAASNLSVNYPVGAPDHISVKQCLLAILILALVATIFFVCTVVLAVRLSRKGHMYPVRNYSPTEMVCISSLLPDGGEGPSATANGGLSKAKSPGLTPEPREDREGDDLTLHSFLP | 44.8 | significantly lower | – | – | – | equivalent to that of CD44 | rolled on KG1a PSGL-1

— patent US10370642B2, “Hematopoietic progenitor cell populations having affinity for E-selectin / L-selectin” (priority 2000, dated 2019)
